# In US20250163167A1 (SYNTHEKINE, published 2025):
# B1: IL10R binding molecule of SEQ ID NO: 333 (bispecific antibody)
# chain: QVQLQESGGGSVEAGGSLRLSCAASGYTHSSYCMGWFRQAPGKEREGVAAIDVDGSTTYADSVKGRFTISKDNAKNTLYLQMNSLKPEDTGMYYCAAEFADCSSNYFLPPGAVRYWGQGTQVTVSSGGGSQVQLQESGGGSVQAGGSLRLSCAASRYLYSIDYMAWFRQSPGKEREPVAVIYTASGATFYPDSVKGRFTISQDNAKMTVYLQMNSLKSEDTAMYYCAAVRKTDSYLFDAQSFTYWGQGTQVTVSSASHHHHHH
# B2: IL10R binding molecule of SEQ ID NO: 331 (bispecific antibody)
# chain: QVQLQESGGGSVQAGGSLRLSCTVSRYTASVNYMGWFRQAPGKEREGVATIFTGAGTTYYANSVKGRFTISRDNAKNTAYLQMNSLKPEDTAIYYCAVDFRGGLLYRPAYEYTYRGQGTQVTVSSGGGSQVQLQESGGGSVQAGGSLRLSCGASGYTYSSYCMGWFRQVPGKEREGVAVIDSDGSTSYADSVKGRFTISKDNGKNTLYLQMNSLKPEDTAMYYCAADLGHYRPPCGVLYLGMDYWGKGTQVTVSSASHHHHHH
# B3: IL10R binding molecule of SEQ ID NO: 334 (bispecific antibody)
# chain: QVQLQESGGGSVEAGGSLRLSCAASGYTHSSYCMGWFRQAPGKEREGVAAIDVDGSTTYADSVKGRFTISKDNAKNTLYLQMNSLKPEDTGMYYCAAEFADCSSNYFLPPGAVRYWGQGTQVTVSSGGGSQVQLQESGGGSVQAGGSLRLSCAASRFTYSSYCMGWFRQAPGKEREGVASIDSDGSTSYTDSVKGRFTISKDNAKNTLYLQMNSLKPEDTAMYYCALDLMSTVVPGFCGFLLSAGMDYWGKGTQVTVSSASHHHHHH
# B4: IL10R binding molecule of SEQ ID NO: 332 (bispecific antibody)
# chain: QVQLQESGGGSVQAGGSLRLSCTVSRYTASVNYMGWFRQAPGKEREGVATIFTGAGTTYYANSVKGRFTISRDNAKNTAYLQMNSLKPEDTAIYYCAVDFRGGLLYRPAYEYTYRGQGTQVTVSSGGGSQVQLQESGGGSVQAGGSLRLSCAASGYSNCSYDMTWYRQAPGKEREFVSAIHSDGSTRYADSVKGRFFISQDNAKNTVYLQMNSLKPEDTAMYYCKTDPLHCRAHGGSWYSVRANYWGQGTQVTVSSASHHHHHH
# B5: IL10R binding molecule of SEQ ID NO: 262 (bispecific antibody)
# chain: QVQLQESGGGSVQAGGSLRLSCAASRYLYSIDYMAWFRQSPGKEREPVAVIYTASGATFYPDSVKGRFTISQDNAKMTVYLQMNSLKSEDTAMYYCAAVRKTDSYLFDAQSFTYWGQGTQVTVSSGGGSQVQLQESGGGSVQTGGSLRLSCAASGYTYLRGCMGWFRQAPGKEREGVAVMDVVGDRRSYIDSVKGRFTISRDNAANSVYLQMDNLKPEDTAMYYCTAGPNCVGWRSGLDYWGQGTQVTVSSASHHHHHH
# B6: IL10R binding molecule of SEQ ID NO: 329 (bispecific antibody)
# chain: QVQLQESGGGSVQAGGSLRLSCTVSRYTASVNYMGWFRQAPGKEREGVATIFTGAGTTYYANSVKGRFTISRDNAKNTAYLQMNSLKPEDTAIYYCAVDFRGGLLYRPAYEYTYRGQGTQVTVSSGGGSQVQLQESGGGSVQAGGSLRLSCAVSGYAYSTYCMGWFRQAPGKEREGVAAIDSGGSTSYADSVKGRFTISKDNAKNTLYLRMNSLKPEDTAMYYCAAVPPPPDGGSCLFLGPEIKVSKADFRYWGQGTQVTVSSASHHHHHH
# B7: IL10R binding molecule of SEQ ID NO: 330 (bispecific antibody)
# chain: QVQLQESGGGSVQAGGSLRLSCTVSRYTASVNYMGWFRQAPGKEREGVATIFTGAGTTYYANSVKGRFTISRDNAKNTAYLQMNSLKPEDTAIYYCAVDFRGGLLYRPAYEYTYRGQGTQVTVSSGGGSQVQLQESGGGSVQAGGSLRLSCTVSGYTYSSNCMGWFRQAPGKEREGVATIYTGGGNTYYADSVKGRFTISQDNAKNTVYLQMNNLKPEDTAMYYCAAEPLSRVYGGSCPTPTFDYWGQGTQVTVSSASHHHHHH
# Molecular target: T1, human IL-10 receptor (hIL-10R alpha and beta chains) on HEK-Blue IL-10 reporter cells (human, UniProt Q13651 22-578; Q08334 20-325)
# T1 sequence 1: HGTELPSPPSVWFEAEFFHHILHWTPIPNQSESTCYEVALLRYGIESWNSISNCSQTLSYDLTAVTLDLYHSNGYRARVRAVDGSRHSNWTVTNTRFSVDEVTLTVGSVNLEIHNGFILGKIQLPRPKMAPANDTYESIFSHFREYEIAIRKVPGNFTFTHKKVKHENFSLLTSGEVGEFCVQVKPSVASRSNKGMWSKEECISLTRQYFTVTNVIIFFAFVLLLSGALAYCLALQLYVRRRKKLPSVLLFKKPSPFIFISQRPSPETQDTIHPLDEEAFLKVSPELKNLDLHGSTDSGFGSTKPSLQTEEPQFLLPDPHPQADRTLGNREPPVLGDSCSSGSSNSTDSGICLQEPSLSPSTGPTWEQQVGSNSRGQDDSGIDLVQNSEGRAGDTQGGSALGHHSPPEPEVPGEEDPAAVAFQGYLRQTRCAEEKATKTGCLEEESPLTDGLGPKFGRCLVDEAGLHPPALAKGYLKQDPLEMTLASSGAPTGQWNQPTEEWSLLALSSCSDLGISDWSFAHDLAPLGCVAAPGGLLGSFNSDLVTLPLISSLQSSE
# T1 sequence 2: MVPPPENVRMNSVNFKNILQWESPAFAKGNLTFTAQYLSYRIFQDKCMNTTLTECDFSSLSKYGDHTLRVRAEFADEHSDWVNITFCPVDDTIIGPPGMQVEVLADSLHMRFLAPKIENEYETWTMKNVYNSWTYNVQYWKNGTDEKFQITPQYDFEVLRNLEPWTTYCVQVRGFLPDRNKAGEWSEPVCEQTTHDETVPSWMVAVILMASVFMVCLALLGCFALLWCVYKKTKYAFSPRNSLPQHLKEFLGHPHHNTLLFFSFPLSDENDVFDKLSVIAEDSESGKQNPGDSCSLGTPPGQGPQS
# Test: cell-based or functional assay
Binder,Abs 630 (25 nM) [Abs 630],Abs 630 (100 nM) [Abs 630]
B1,0.49,0.54
B2,0.5,0.41
B3,1.43,1.14
B4,0.47,0.36
B5,1.38,0.4
B6,0.48,0.39
B7,0.45,0.36
